Data as given in US20190010247A1 (MINOMIC INTERNATIONAL, published 2019).
Values belong to the binder of their own block, whether it stands above or below them.

Experiments:
[1] = biological target: T1, GPC-1 (MIL-38 antigen) expressed by human cancer cell lines DU-145, T-24, PANC-1 and MDA-MB-231 (human, UniProt P35052 24-530); experiment: flow cytometry, CY5-labelled scFv on DU-145 cells
T1 construct: whole, on cells; also called GPC-1 on the cell surface
T1 sequence (looked up): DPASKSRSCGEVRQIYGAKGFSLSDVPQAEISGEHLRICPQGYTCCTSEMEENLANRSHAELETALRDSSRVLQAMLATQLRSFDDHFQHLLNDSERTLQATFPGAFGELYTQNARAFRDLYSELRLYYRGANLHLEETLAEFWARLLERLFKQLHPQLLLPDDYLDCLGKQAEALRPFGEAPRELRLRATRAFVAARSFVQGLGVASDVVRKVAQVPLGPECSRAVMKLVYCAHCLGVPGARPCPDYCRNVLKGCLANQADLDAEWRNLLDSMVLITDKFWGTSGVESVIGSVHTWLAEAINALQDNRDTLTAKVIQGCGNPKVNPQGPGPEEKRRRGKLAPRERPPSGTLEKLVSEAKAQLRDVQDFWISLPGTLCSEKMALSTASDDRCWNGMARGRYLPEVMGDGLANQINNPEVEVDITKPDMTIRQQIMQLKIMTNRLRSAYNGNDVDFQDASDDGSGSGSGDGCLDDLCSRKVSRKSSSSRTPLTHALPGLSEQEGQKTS

[2] = biological target: T2, recombinant human GPC-1 (NS0-produced glypican-1 antigen) (human, UniProt P35052 24-530); experiment: western blot, anti-mouse HRP detection
T2 construct: Bought recombinant protein; also called recombinant NS0 GPC-1; NS0-produced recombinant GPC-1 antigen
T2 sequence (looked up): T1 sequence (looked up)
Procedure: Briefly, after transfer membranes were blocked with 5% skim milk in PBS-Tween (0.1%) for 2 h at room temperature. Primary antibodies (1 μg/ml in 5% skim milk—PBS-Tween (0.1%) were applied and incubated overnight at 4° C. After washing (3×10 min PBS-Tween (0.1%)) membranes were incubated with secondary antibody (1:2000 sheep-anti-mouse HRP-labelled in 5% skim milk—PBS-Tween (0.1%)). After washing (3×10 min PBS-Tween (0.1%)) antigen was detected by using ECL detection kit (Biorad) and imaging with LAS4000 mini (GE Life Science).

[3] = biological target: T1, GPC-1 (MIL-38 antigen) expressed by …; experiment: binding to DU-145 cells, graded in Table 4
[4] = biological target: T2, recombinant human GPC-1 (NS0-produced …); experiment: western blot, three-antibody detection
[5] = biological target: T2, recombinant human GPC-1 (NS0-produced …); experiment: direct binding ELISA, GPC-1 coated
[6] = biological target: T1, GPC-1 (MIL-38 antigen) expressed by …; experiment: flow cytometry on DU-145 cells (FIG. 10)

binding result [1]: binds
B1: scFv MIL-38 (scFv)
scFv: QIQLVQSGPELKKPGETVKISCKASGYAFTDYSMNWVKQAPGKGLRWMGWINTETGEPTYTDDFKGRFAFSLETSASTAFLQINNLRNEDTATYFCARHYDYGGFPYWGQGTLVTVSSGGGGSGGGGSGGGGSDIQMTQSPASLSASVGETVTITCRASGNVHNYLAWYQQKQGKSPQLLVYTAKTLADGVPSRFSGSGSGTQYSLKINSLQPEDFGTYYCQHFWSNPWTFGGGTKLEIKHHHHHHC
modifications: CY5 fluorophor label (site not stated)
notes: VH (20-137), gly/ser linker (138-152), VL (153-259), hexa-His tag (260-265), C-terminal cysteine (266); Leader 1-19 is stated and left out; also called MIL-38 scFv; scFv MIL-38 construct

binding result [2]: binds
binding result [3]: binds
B2: murine MIL-38 monoclonal antibody, AM4 population, clone 1F5 (hybridoma CBA20140026) (antibody, mouse IgG1, kappa)
heavy: QIQLVQSGPELKKPGETVKISCKASGYAFTDYSMNWVKQAPGKGLRWMGWINTETGEPTYTDDFKGRFAFSLETSASTAFLQINNLRNEDTATYFCARHYDYGGFPYWGQGTLVTVSAAKTTPPSVYPLAPGSAAQTNSMVTLGCLVKGYFPEPVTVTWNSGSLSSGVHTFPAVLQSDLYTLSSSVTVPSSTWPSETVTCNVAHPASSTKVDKKIVPRDCGCKPCICTVPEVSSVFIFPPKPKDVLTITLTPKVTCVVVDISKDDPEVQFSWFVDDVEVHTAQTQPREEQFNSTFRSVSELPIMHQDWLNGKEFKCRVNSAAFPAPIEKTISKTKGRPKAPQVYTIPPPKEQMAKDKVSLTCMITDFFPEDITVEWQWNGQPAENYKNTQPIMDTDGSYFVYSKLNVQKSNWEAGNTFTCSVLHEGLHNHHTEKSLSHSPGK
light: DIQMTQSPASLSASVGETVTITCRASGNVHNYLAWYQQKQGKSPQLLVYTAKTLADGVPSRFSGSGSGTQYSLKINSLQPEDFGTYYCQHFWSNPWTFGGGTKLEIKRADAAPTVSIFPPSSEQLTSGGASVVCFLNNFYPKDINVKWKIDGSERQNGVLNSWTDQDSKDSTYSMSSTLTLTKDEYERHNSYTCEATHKTSTSPIVKSFNRNEC
notes: Mouse IgG1 kappa; Leader 1-19 (heavy) and 1-20 (light) are stated and left out; 1F5 is named an AM4 clone; also called AM4 MIL-38; AM4 1F5

binding result [4]: binds
binding result [3]: binds
B3: chimeric MIL-38 antibody (mouse VH-human CH1-CH3 heavy chain, mouse VK-human CK light chain) (antibody)
heavy: not shown
light: DIQMTQSPASLSASVGETVTITCRASGNVHNYLAWYQQKQGKSPQLLVYTAKTLADGVPSRFSGSGSGTQYSLKINSLQPEDFGTYYCQHFWSNPWTFGGGTKLEIKRTVAAPSVFIFPPSDEQLKSGTASVVCLLNNFYPREAKVQWKVDNALQSGNSQESVTEQDSKDSTYSLSSTLTLSKADYEKHKVYACEVTHQGLSSPVTKSFNRGEC
notes: Human IgG1 kappa constant regions; also called chMIL-38; MIL-38 chimeric antibody

binding result [5]: binds
binding result [6]: binds
B4: chimeric MIL-38 DOTA conjugate (antibody, human IgG1, kappa)
heavy: not shown
light: B3 light
modifications: p-SCN-Bn-DOTA conjugated; sites not stated; p-SCN-Bn-DOTA conjugated; 4.3, 4.6 or 7.5 DOTA per MAb for 5, 10 or 20 fold excess; sites not stated
notes: also called chMIL-38 DOTA; DOTA-cMIL-38
